The source of these data is US10653749B2, “Targeting GIV-GEF-GI signaling for treating diverse diseases” (The Regents of the University of California, priority 2015, dated 2020).

In one assay the target is T1, GST-Gαi3 (GDP loaded) (Rattus norvegicus, UniProt P08753).
T1 construct: made in house; host or cells: E. coli BL21(DE3)
In words: In vitro GST pulldown of TAT-GIV-CT proteins with GST-Gαi3. The class given is binding. The conditions noted are these: 3 μg TAT protein, 4 h at 4° C., immunoblot with His mAb. The protocol:
Purified GST-Gαi3 or GST alone (5 μg) were immobilized on glutathione-Sepharose beads and incubated with binding buffer [50 mM Tris-HCl (pH 7.4), 100 mM NaCl, 0.4% (vol:vol) Nonidet P-40, 10 mM MgCl2, 5 mM EDTA, 30 μM GDP, 2 mM DTT, protease inhibitor mixture] for 90 min at room temperature as described (49, 50, 52, 54). TAT-GIV-CT (amino acids 1,660-1,870) proteins (3 μg) were added to each tube, and binding reactions were carried out for 4 h at 4° C. with constant tumbling. Beads were washed (four times) with 1 mL of wash buffer [4.3 mM Na2HPO4, 1.4 mM KH2PO4 (pH 7.4), 137 mM NaCl, 2.7 mM KCl, 0.1% (vol:vol) Tween 20, 10 mM MgCl2, 5 mM EDTA, 30 μM GDP, 2 mM DTT] and reduced in Laemmli's sample buffer at 37° C. Immunoblot analysis was performed by infrared imaging following the manufacturer's protocols using an Odyssey imaging system (Li-Cor Biosciences).

For the next assay, the system named is HeLa cells. Put plainly: Actin cytoskeleton remodeling in HeLa cells (phalloidin staining, confocal). In kind it is cell-based. The conditions noted are these: ~400 nM TAT peptide. The protocol: HeLa cell lines were fixed at room temperature with 3% paraformaldehyde for 20-25 min, permeabilized (0.2% Triton X-100) for 45 min and incubated for 1 h each with primary and then secondary antibodies as described (7). Dilutions of antibodies and reagents were as follows: His (1:500); Phalloidin (1:1,000); DAPI (1: 2,000); secondary goat anti-rabbit (594) and goat anti-mouse (488) Alexa-conjugated antibodies (1:500). Coverslips were mounted with ProLong Gold (Life Technologies). Cells were imaged on a Leica SPE confocal microscope using a 63× oil objective using 488, 561, and 405 laser lines for excitation. Images were scanned using a line-average of 3. All images were processed using ImageJ software and assembled into figure panels using Photoshop and Illustrator (Adobe).
(§1) For TAT-protein transduction, cells were incubated with 400-800 nM of the TAT-proteins for 30 min at 37° C. prior to three washes with PBS and addition of fresh growth media. For analysis of EGF signaling, subconfluent monolayers of HeLa cells were treated with TAT proteins for 30 min, washed with PBS, and subsequently stimulated with EGF (50 nM) at 4 h after TAT transduction. For scratch-wound assays, HeLa monolayers were treated with TAT proteins before and at 12 h after wounding. For cancer cell invasion assays, highly invasive MDA MB 231 breast cancer cells were plated in 6-well dishes, treated with TAT-peptides for 30 min and subsequently lifted and placed in transwell chamber in the presence of serum-free media. For L×2 myofibroblast activation assays, cells were first treated with TAT-proteins for 30 min, starved in serum-free media, and subsequently treated with 1.5 ng/ml TGF-β for 24 h. TAT-protein transduction was repeated every 8 h during the course of TGFβ stimulation (total 3 treatments). For assays involving insulin stimulation of TAT-treated L6 myotubes, such stimulation was carried out 90 min after transduction. In each case, whole cell lysates prepared from cells in duplicate wells were analyzed for signaling pathways and TAT-protein uptake by immunoblotting.

Assay [1] has as its system EGFR autophosphorylation and Akt signaling. In words: EGF signaling in TAT-transduced HeLa cells by immunoblotting. In kind it is cell-based. The settings on record: 50 nM EGF; for EGFR autophosphorylation: pY1068. The protocol:
For immunoblotting, protein samples were separated by SDS/PAGE and transferred to PVDF membranes (Millipore). Membranes were blocked with PBS supplemented with 5% nonfat milk (or with 5% BSA when probing for phosphorylated proteins) before incubation with primary antibodies. Infrared imaging with two-color detection and quantification were performed using a Li-Cor Odyssey imaging system (50, 52, 53). Primary antibodies were diluted as follows: anti-His 1:1,000; anti-GIV/Girdin (T-13) 1:500; antiphospho EGFR 1068 (1:1000); anti-phospho-Akt (Ser473) 1:250; anti-Akt 1:500; anti-Gαi3 1:333; anti-pan-GP 1:250; anti-α tubulin 1: 2,000. All Odyssey images were processed using Image J software (NIH) and assembled for presentation using Photoshop and Illustrator software (Adobe).
as §1
Background: Immunoblotting shows a protein as a band on a membrane.

Assay [2] deals with 6-mm punch biopsy dermal wounds. Put plainly: Dermal wound healing in mice, topical TAT proteins. The class given is in vivo. The settings on record: for wound healing: topical 15 μg (~500 pmol) every 24 h for 8 d, vs TAT control. The method, then:
Under general anesthesia, two 6-mm diameter punch biopsy wounds were created on the shaved dorsal surface of 8 wk old female C56BL/6 wild-type mice under sterile conditions. Wounds were then treated with 15 μg (˜500 pmol) of TAT proteins every 24 h for 8 d after injury, and photographed every 48 h over that period, and wound area was manually traced by placing a transparent film over the wound and tracing the outline with a permanent marker. To measure the wound area, the edges of the dermis were determined as the wound edge. […] The tracing was then scanned and measured using an image analysis program (NIH Image J Software). Five mice, each with 2 wounds (a total of 10 wounds) were studied in each treatment arm, and their rate of closure was analyzed. These studies were carried out in a blinded manner such that aliquots of purified TAT proteins were prepared and color coded before their arrival at the animal facility. Consequently, the personnel who performed dermal punch biopsies, daily treatment with TAT proteins, photography and measurement of wound area was blinded to the identity of the compound. The study protocol (FIG. 4B) included standard wound care as per IACUC guidelines.

For a further assay, the system named is L6 myotubes. Put plainly: Uptake of TAT peptides and actin staining in L6 myotubes (confocal). The conditions noted are these: 0.2% FBS overnight. The class given is cell-based, rat. The source says: Dilutions of antibodies are as follows: anti-phospho-GIV-Tyr1764 (1:200) (Ventana/Roche and Spring Biosciences); anti-HA (1:300) (Covance); anti-GFP, mouse anti-InsRβ and mouse anti-phospho-IRS1 (1:200) from Santa Cruz Biotechnologies; DAPI 1:1,000 (Molecular Probes); Secondary goat anti-rabbit (594) and goat anti-mouse (488) Alexa conjugated antibodies (1:500) from Molecular Probes. Coverslips were mounted with ProLong Gold (Life Technologies). Cells were imaged on a Leica SPE confocal microscope using a 63× oil objective using 488, 561 and 405 laser lines for excitation. Images were scanned using a line-average of 3. All images were processed using ImageJ software and assembled into figure panels using Photoshop and Illustrator (Adobe).
Transfection was carried out with GeneJuice (Novagen) for DNA plasmids or Oligofectamine (Invitrogen) for siRNA oligos according to manufacturer's protocols. Silencer negative Control scrambled (Scr) siRNA used as control was purchased from Ambion and the previously validated (Enomoto et al., 2005) GIV siRNA sequence used was custom-ordered from Dharmacon. For TAT-construct transduction, cells were incubated with 300-800 nM of the TAT-proteins for 30 min at 37° C. prior to three washes with PBS and addition of fresh growth media. […]

Entries after “also recorded” stand apart in the source; their conditions may differ.

T1 sequence (P08753 whole entry): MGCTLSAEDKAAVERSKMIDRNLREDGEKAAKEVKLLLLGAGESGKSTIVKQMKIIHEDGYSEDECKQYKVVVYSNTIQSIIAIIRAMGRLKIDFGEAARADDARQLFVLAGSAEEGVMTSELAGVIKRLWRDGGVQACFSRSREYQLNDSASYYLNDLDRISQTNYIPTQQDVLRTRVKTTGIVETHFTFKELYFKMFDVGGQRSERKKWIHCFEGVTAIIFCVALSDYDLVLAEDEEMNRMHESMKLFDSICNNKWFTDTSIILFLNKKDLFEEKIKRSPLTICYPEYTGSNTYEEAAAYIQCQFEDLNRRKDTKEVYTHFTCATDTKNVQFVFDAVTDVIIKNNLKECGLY

B1: TAT-GIV-CT-WT: Recombinant cell-permeable fusion of TAT-PTD, His and HA tags, linker and human GIV C-terminus (aa 1660-1870), wild type; SEQ ID NO: 2 (protein)
chain: MRGSHHHHHHGMASMTGGQQMGRDLYDDDDKDRWGSKLGYGRKKRRQRRRGGSTMSGYPYDVPDYAGSMGGSGHSGETLESRHHKIKTGSPGSEVVTLQQFLEESNKLTSVQIKSSSQENLLDEVMKSLSVSSDFLGKDKPVSCGLARSVSGKTPGDFYDRRTTKPEFLRPGPRKTEDTYFISSAGKPTPGTQGKIKLVKESSLSRQSKDSNPYATLPRASSVISTAEGTTRRTSIHDFLTKDSRLPISVDSPPAAADSNTTAASNVDKVQESRNSKSRSREQQSS
B1: the “Binding to GDP-loaded GST-Gαi3 in pulldown” value (“Binding” below) with GST-Gαi3 (GDP loaded) is on record as “bound”. Also, the “Binding” value with GST-Gαi3 (GDP loaded) (listed as WT) was “binds”. Besides, in the assay with HeLa cells, the “actin remodeling / actin stress fibers” value is “triggered actin remodeling”. In addition, the “actin remodeling / actin stress fibers” value with HeLa cells (listed as WT) is “not”. Further, in assay [1], the “Akt signaling (phosphorylation at Ser 473)” value was “enhances” and the EGFR autophosphorylation entry is “enhances”. In assay [2] (topical 500 pmol daily), the “rate of wound healing relative to TAT-treated controls” value was roughly 2 × the rate and the “time of wound healing relative to TAT-treated controls” value was “a day earlier”. In addition, the wound healing result in assay [2] was “accelerated wound healing; also recorded: accelerates”. For the same molecule, in the assay on L6 myotubes, the “actin stress-fiber formation in L6 myotubes” value is on record as “enhancement”.

B2: TAT-GIV-CT-FA: GEF-deficient F1685A mutant of the TAT-GIV-CT peptide, dominant-negative; SEQ ID NO: 3 (protein)
chain: MRGSHHHHHHGMASMTGGQQMGRDLYDDDDKDRWGSKLGYGRKKRRQRRRGGSTMSGYPYDVPDYAGSMGGSGHSGETLESRHHKIKTGSPGSEVVTLQQALEESNKLTSVQIKSSSQENLLDEVMKSLSVSSDFLGKDKPVSCGLARSVSGKTPGDFYDRRTTKPEFLRPGPRKTEDTYFISSAGKPTPGTQGKIKLVKESSLSRQSKDSNPYATLPRASSVISTAEGTTRRTSIHDFLTKDSRLPISVDSPPAAADSNTTAASNVDKVQESRNSKSRSREQQSS
For B2, in the assay with GST-Gαi3 (GDP loaded), the “Binding” value is listed as “did not bind”. Also, the “Binding” value with GST-Gαi3 (GDP loaded) (listed as FA) is on record as “not”. The “actin remodeling / actin stress fibers” value with HeLa cells is reported as “suppressed the formation of actin stress fibers”. In assay [1], the “Akt signaling (phosphorylation at Ser 473)” value is “inhibited; also recorded: suppresses” and the EGFR autophosphorylation result was “inhibited; also recorded: suppresses”. The wound healing result in assay [2] (listed as FA) was “delayed wound healing; also recorded: retards”. The “actin stress-fiber formation in L6 myotubes” value in the assay with L6 myotubes is on record as “disrupted”.
